Data reported in article PMC9073327.

Key:
WRKY2:HIS [1] = target: T1, WRKY2:HIS (Arabidopsis thaliana (Col), UniProt Q9FG77 1-687); assay: EMSA
WRKY10:MYC [2] = target: T2, WRKY10:MYC (Arabidopsis thaliana (Col), UniProt Q9LG05 1-485); assay: EMSA
WRKY10:MYC [3] = target: T2, WRKY10:MYC; assay: competition
WRKY2:HIS [4] = target: T1, WRKY2:HIS; assay: competition
LHY:MBP [5] = target: T3, LHY:MBP (Arabidopsis thaliana, UniProt Q6R0H1 1-645); assay: EMSA
T3 sequence: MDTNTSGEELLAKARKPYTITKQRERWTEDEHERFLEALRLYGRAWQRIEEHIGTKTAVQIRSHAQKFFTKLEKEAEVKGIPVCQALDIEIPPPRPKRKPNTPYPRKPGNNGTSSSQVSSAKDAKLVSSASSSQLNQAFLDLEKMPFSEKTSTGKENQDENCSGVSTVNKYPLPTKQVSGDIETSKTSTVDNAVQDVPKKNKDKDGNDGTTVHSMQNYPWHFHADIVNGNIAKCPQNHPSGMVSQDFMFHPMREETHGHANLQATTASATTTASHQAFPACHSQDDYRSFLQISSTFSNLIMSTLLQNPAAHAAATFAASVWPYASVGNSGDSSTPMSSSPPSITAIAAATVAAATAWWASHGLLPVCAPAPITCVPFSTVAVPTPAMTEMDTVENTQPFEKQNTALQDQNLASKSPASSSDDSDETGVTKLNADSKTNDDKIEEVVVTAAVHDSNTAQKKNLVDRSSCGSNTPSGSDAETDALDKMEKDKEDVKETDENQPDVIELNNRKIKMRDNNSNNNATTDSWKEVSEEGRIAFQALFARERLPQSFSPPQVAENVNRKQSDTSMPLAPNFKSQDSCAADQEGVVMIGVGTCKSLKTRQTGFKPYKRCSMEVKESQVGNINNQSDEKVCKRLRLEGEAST

CCA1:MBP [6] = target: T4, CCA1:MBP (Arabidopsis thaliana, UniProt P92973 1-608); assay: EMSA
T4 sequence (P92973 whole entry): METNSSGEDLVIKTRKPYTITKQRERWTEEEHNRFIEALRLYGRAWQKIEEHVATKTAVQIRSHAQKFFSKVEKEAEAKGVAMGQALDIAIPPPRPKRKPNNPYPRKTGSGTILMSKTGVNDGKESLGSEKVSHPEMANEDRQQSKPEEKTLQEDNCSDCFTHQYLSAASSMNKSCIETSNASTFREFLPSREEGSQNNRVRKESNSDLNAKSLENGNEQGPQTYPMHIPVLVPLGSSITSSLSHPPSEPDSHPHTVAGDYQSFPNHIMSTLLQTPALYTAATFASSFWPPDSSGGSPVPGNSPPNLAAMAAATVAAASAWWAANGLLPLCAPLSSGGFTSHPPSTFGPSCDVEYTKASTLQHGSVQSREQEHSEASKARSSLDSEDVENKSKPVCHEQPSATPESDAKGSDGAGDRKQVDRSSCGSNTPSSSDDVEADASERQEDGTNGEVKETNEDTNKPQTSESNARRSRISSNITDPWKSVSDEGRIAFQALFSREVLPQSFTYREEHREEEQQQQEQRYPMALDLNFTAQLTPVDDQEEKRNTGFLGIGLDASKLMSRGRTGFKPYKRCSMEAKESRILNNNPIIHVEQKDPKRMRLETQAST
LHY:MBP;WRKY10:MYC = LHY:MBP;WRKY10:MYC (Arabidopsis thaliana;Arabidopsis …, UniProt Q6R0H1;Q9LG05 1-645;1-485, |); assay: EMSA
Chain of LHY:MBP;WRKY10:MYC (Q9LG05 whole entry, one chain of several): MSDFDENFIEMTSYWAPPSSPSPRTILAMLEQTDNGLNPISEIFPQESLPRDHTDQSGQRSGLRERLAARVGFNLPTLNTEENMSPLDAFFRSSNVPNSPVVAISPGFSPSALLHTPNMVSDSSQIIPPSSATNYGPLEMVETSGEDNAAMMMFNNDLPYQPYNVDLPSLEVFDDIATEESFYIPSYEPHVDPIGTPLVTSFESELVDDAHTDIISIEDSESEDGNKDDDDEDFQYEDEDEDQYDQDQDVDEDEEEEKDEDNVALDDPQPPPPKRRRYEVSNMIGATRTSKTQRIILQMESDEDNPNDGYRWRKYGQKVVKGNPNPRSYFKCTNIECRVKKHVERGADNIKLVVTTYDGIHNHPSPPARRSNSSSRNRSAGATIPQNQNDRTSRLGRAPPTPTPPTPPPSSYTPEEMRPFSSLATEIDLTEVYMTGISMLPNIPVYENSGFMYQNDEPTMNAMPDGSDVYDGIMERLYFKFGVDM
LHY:MBP;WRKY2:HIS = LHY:MBP;WRKY2:HIS (Arabidopsis thaliana;Arabidopsis …, UniProt Q6R0H1;Q9FG77 1-645;1-687, |); assay: EMSA
Chain of LHY:MBP;WRKY2:HIS (Q9FG77 whole entry, one chain of several): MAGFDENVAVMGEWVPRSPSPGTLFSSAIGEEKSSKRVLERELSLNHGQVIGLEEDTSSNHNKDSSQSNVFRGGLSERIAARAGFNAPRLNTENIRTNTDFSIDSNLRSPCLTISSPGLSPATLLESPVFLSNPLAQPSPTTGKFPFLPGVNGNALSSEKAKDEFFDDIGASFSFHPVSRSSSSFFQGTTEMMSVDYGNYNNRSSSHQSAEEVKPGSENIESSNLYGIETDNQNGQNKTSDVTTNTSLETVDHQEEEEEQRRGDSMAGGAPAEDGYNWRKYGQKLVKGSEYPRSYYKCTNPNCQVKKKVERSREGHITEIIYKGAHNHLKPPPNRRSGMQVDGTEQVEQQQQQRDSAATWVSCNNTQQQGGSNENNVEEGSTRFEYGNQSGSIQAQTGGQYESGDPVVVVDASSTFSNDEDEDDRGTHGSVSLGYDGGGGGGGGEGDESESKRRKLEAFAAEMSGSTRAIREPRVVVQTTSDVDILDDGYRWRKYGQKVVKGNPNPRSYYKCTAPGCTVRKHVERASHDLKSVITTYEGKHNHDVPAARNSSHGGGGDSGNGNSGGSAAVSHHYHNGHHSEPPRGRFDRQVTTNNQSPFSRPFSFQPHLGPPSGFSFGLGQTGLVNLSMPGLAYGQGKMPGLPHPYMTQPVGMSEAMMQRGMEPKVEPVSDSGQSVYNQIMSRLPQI
LHY:MBP [7] = target: T3, LHY:MBP; assay: competition
CCA1:MBP [8] = target: T4, CCA1:MBP; assay: competition

T2 sequence (Q9LG05 whole entry): as the sequence (Q9LG05 whole entry, one chain of several) above
T1 sequence (Q9FG77 whole entry): as the sequence (Q9FG77 whole entry, one chain of several) above

B1: PIF4 W1-box probe (4W1) (dsDNA)
DNA 1: CTATAGATGATTGTGATTTGACAAAAACACCCTCAAATCA
DNA 2: TGATTTGAGGGTGTTTTTGTCAAATCACAATCATCTATAG
WRKY2:HIS [1]
  binding result: binds
WRKY10:MYC [2]
  binding result: binds

B2: PIF4 W1-box mutant competitor (4W1 mut) (dsDNA)
DNA 1: CTATAGATGATTGTGATGGTGTGAAAACACCCTCAAATCA
DNA 2: TGATTTGAGGGTGTTTTCACACCATCACAATCATCTATAG
WRKY10:MYC [3]
  binding result: no binding
WRKY2:HIS [4]
  binding result: no binding

B3: PIF4 M1-box probe (4M1) (dsDNA)
DNA 1: ATCTCCCTCGCTGTAATATCTTTATGCTCCTGTCACT
DNA 2: AGTGACAGGAGCATAAAGATATTACAGCGAGGGAGAT
LHY:MBP [5]
  binding result: binds
CCA1:MBP [6]
  binding result: binds
LHY:MBP;WRKY10:MYC
  binding result: binds
LHY:MBP;WRKY2:HIS
  binding result: binds

B4: PIF4 M1-box mutant competitor (4M1 mut) (dsDNA)
DNA 1: ATCTCCCTCGCTGTAATTGCTTTATGCTCCTGTCACT
DNA 2: AGTGACAGGAGCATAAAGCAATTACAGCGAGGGAGAT
LHY:MBP [7]
  binding result: no binding
CCA1:MBP [8]
  binding result: no binding
